# Measurements from the nanobody polyreactivity screen of Harvey et al. (2022).
# Assay: yeast display, Sf9 membrane polyspecificity reagent, FACS + sequencing; frameworks hold sequencing errors
# Method in brief: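 Polyreactivity labels are assigned by the sorting gate from which each nanobody was recovered. The gates were low and high (top ~1%), set on anti-HA fluorescence for expression and streptavidin fluorescence for reagent binding. Before sorting, galactose-induced (36–48 hours) yeast display cells were stained for 1 hour at 4 °C with 10% biotinylated, detergent-solubilized Sf9 membrane reagent.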
row,Sequence,polyreactivity (PSR sort gate)
1,QVQLVESGGGLVQAGGSLRISCAASGFTFALYAMGWYRQAPGKERELVAAITRRGGSTYYADSVKGRFTISRDNAKNTVYLQMNSLKPEDTAVYNCAKRERAIKVSRYDSHDYWGQGTQVTVSS,high polyreactivity
2,QVQLVESGGGLVQAGGSLRISCAASGFTFGVYAMGWYRPAPGKEREFVASISFSGGRTYYSDSVKGRFTISRDNAKNTVYLQMNSLKPEDTAVYYCAKRWSADDYWGQGTQVTVSS,high polyreactivity
3,QVQLVESGGGLVQAGGSLRISCAASGFTFKRYAMGWYRQAPGKERELVAAITWRGGSTYYADSVKGRFTISRDNAKNTVYLQMNSLKPEDTAVYYCAAYSYPYWQKRPYDYWGQGTQVTVSS,high polyreactivity
4,QVQLVESGGGLVQAGGSLRISCAASGFTFRNYAMGWYRQAPGKEREFVASISFAGGRTYYADSVKGRFTISRDNAKNTVYLQMNSLKPEDTAVYYCAKKSYSKYDYWGQGTQVTVSS,high polyreactivity
5,QVQLVESGGGLVQAGGSLRISCAASGFTFWLYAMGWYRQAPGKERELVATISWSGGSTYYADSVKGRFTISRDNAKNTVYVQMNSLKPEDTAVYYCATRYRSYSVFGYGYWGQGTQVTVSS,high polyreactivity
6,QVQLVESGGGLVQAGGSLRISCAASGFTFYYNAMGWYRQAPGKERELVASISSNGTSTYYADSVKGRFTISRDNAKNTVYLQMNSLKPEDTAVYYCNVDIFDPRTYDYWGQGTQVTVSS,low polyreactivity
7,QVQLVESGGGLVQAGGSLRISCAASGGTFVPYAMGRSRQAPGKERELVARISKRGGTTYYADSVKGRFTISRDIGKNTVYLQMNSLKPEDTAVYYCAAVLPARGYYWGLGTQVTVSS,high polyreactivity
8,QVQLVESGGGLVQAGGSLRISCAASGIIFSPYVMGWYRQAPGKERELVAAITTGDSTNYADSVKGRFTISRDNAKNTVYLQMKSLKPEDSAVYYCNADLYVGYLYYLFDYWGQGTQVSVSS,low polyreactivity
9,QVQLVESGGGLVQAGGSLRISCAASGIIFSVYAMAWYRQAPGKERELVAAISYSGGRTYYADSVKGRFTISRDNAKNTVYLQMNSLKPEDTAVYYCAAGFSLYLGFEYWGQGTQVTVSS,high polyreactivity
10,QVQLVESGGGLVQAGGSLRISCAASGIIFSYYAMGWYRQAPGKERELVAAIRENGGSTYYADSVKGRFTISRDNAKNTVYLQMNSLKPEDTAVYYCAVDTTYYAGYEYDYWGQGTQVTVSS,low polyreactivity
11,QVQLVESGGGLVQAGGSLRISCAASGITFKKNDMGWYRQAPGKERELVAAISGRGGSTYYADSVKGRFTISRDNAKNTVYLQMNSLKPEDTAVYYCAADNFKGDSYGTGTYDYWGQGTQVTVSS,high polyreactivity
12,QVQLVESGGGLVQAGGSLRISCAASGITFYANTMGWYRQAPGKEREFVAAISGIGGSTYYADSVKGRFAISRDNAKNTVYLQMNSLKPEDPAVYYCNADVYYFLFGTFDYWGQGTQVTVSS,low polyreactivity
13,QVQLVESGGGLVQAGGSLRISCAASGITYKEYAMGWYRQAPGKERELVAAISISGGSTYYADSVKGRFTISRDNAKNTFYLQMNSLKPEDTAVYFCAADYAEYEYGDYYWGQGTQVTVSS,low polyreactivity
14,QVQLVESGGGLVQAGGSLRISCAASGLIFNFNALGWYRQAPGKERELVAAITRSGSTDYADSVKGRFTISRDNAKNTVYLQLNSLKPEDTAVYYCAAEFYLRRFKVTKRYWFDYWGQGTQVTVSS,low polyreactivity
15,QVQLVESGGGLVQAGGSLRISCAASGLTLTSNDMGWYRQAPGKEREFVASITWSGGSTSYADSVKGRFTISRDNAKNTVYLQMNSLKPEDTAVYYCAARPRYFSKSWRGYYYWGQGTQVNVSS,high polyreactivity
16,QVQLVESGGGLVQAGGSLRISCAASGLTSYSYAMGWYRQAPGKERELVAAITVNGGRTYYADSVKGRFTISRDNAKNTVYLQMNSLKPEDTAVYYCAAREVTGRPRSYYYWGQGTQVTVSS,low polyreactivity
17,QVQLVESGGGLVQAGGSLRISCAASGNIIRKYAMGWYRQAPGKEREFVAAISSSGGRTYYADSVKGRFTISRDNAKNTVYLQMNSLKPEDTAGYYCARPYSYAYVLGDYWGQGTQVTVSS,high polyreactivity
18,QVQLVESGGGLVQAGGSLRISCAASGRIFFIKAMGWYRQAPGKERELVAAIRRDTRTYYADSVKGRFTISRDNAKNTVYLQMNSLKPEDTAVYYCAADDPWHYDFDYWGQGTQVTVSS,low polyreactivity
19,QVQLVESGGGLVQAGGSLRISCAASGRIFGFNAMGWYRQAPGKERELVAAISRTSSSTYYADSVKGRFTISRDNAKNTVYLQMNSLKPEDTAVYYCATRYFTHGKYDYWGQGTQVTVSS,high polyreactivity
20,QVQLVESGGGLVQAGGSLRISCAASGRIFNSYAMGWYRQAPGKERELVASISTSGGSTYYADSVKGRFTISRDNAKNTVYLQMNSLKPEDTAVYYCARRYYPKFWYTYDSWGQGTQVTVSS,low polyreactivity
21,QVQLVESGGGLVQAGGSLRISCAASGRIFPFYAMGWYRQAPGKDRELVAAIRSGGGSTYYADSVKGRFTISRDNAKKTVYLQRNSLKPEDTAVYYCTARGRLGSAGRYNYWGQGTQVTVSS,high polyreactivity
22,QVQLVESGGGLVQAGGSLRISCAASGRIFQYYSMGWYRQAPGKERELLAAMSSRGGSTTYADSVKGRFTISRDNAKNTVYLQMNRLKPEDTAVYYCASDWYYYPQYRQRYYYWGQGTQVTVSS,high polyreactivity

row,Sequence,polyreactivity (PSR sort gate)
1,QVQLVESGGGLVQAGGSLRISCAASGRIFTTYAMGWYRQAPGKEREFVADITLSGSSTYYADSVKGRFTISRDNAKNTVYLQMNSLKPEDTAVYYCAARTGRYYRRYDYWGQGTQETVSS,high polyreactivity
2,QVQLVESGGGLVQAGGSLRISCAASGRIFVGYAMGWYRQAPGKERELVAAINRSGSSTYYADSVKGRFTISRDNAKNTVYLQMNSLKPEDTAVYYCNARSGNRYGPRYDYWGQGTQVTVSS,high polyreactivity
3,QVQLVESGGGLVQAGGSLRISCAASGRIFVSNAMGWYRQAPGKDRELVAAISKSGARTSYADSVKGRFTISRDNAKNTVYLQMNSLKPEDTAVYYCAAPVRWSGGGEYPNYYWGQGTQVTVSS,high polyreactivity
4,QVQLVESGGGLVQAGGSLRISCAASGRIFYSNTMGWYRQAPGKEREVVARIDTGGGSTYADSVKGRFTISRDNAKKSVYLEMHSLKPADTAVYYCYKKGRWRSWGSTSLVSMDYWGQGTQVTVSS,low polyreactivity
5,QVQLVESGGGLVQAGGSLRISCAASGRILYRYAMGRYRQAPGKERELVAAITWRGGTTYYADSVKGRFTISRDNAKNTVYLQMNSLKPEDTAVYYCNADWWRTLESDYWGQGTQVTVSS,low polyreactivity
6,QVQLVESGGGLVQAGGSLRISCAASGRTFECYAMGWSRQAPGKERELVAAISSGGSTYYADSVKGRFTISRDNAKNTVYLQMNSLKPEDTAVYYCNVLSQQRTARYDYWGQGTQVTVSS,low polyreactivity
7,QVQLVESGGGLVQAGGSLRISCAASGRTFPGNAMGCYRQAPGKERELVAAISYSGGRTYYADSVKGRFTISRDNAKNTVYLQMNSLNPEDTAVYYCNRTPYSDYVFAYDYWGQGTQVTVSS,high polyreactivity
8,QVQLVESGGGLVQAGGSLRISCAASGRTFQFNVMGWYRQAPGKERELVASIRSGGSTNYADSVKGRFTISRDNAKNTVYLQMNSLKPEDTAVYYCAARVASPYYRYDYWGQGTQVTVSS,low polyreactivity
9,QVQLVESGGGLVQAGGSLRISCAASGRTFSNYAMGWYRQAPGKERELVAAISGSGGSTRYADSVKGRFTISRDNANITVYLQMNSLKPEDTAVYYCAARGAGPLHNHYSWGQGTQVTVSS,high polyreactivity
10,QVQLVESGGGLVQAGGSLRISCAASGRTFYRNAMGWNSKAPGKERELVAAIRRSDGSTYYADSVKGRFTISRDNAKNTVYLQMNSLKPEDTAVYYCAAGQGSRNLYYYWGQGTQVTVSS,high polyreactivity
11,QVQLVESGGGLVQAGGSLRISCAASGRTIDSYAMGWYRQAPGKERELVAAISWGGGSTYYADSVKGRFTISRDNAKNTVYLQMNSLKPEDTAVYYCAARWNYTEFDYWGQGTQVTVSS,low polyreactivity
12,QVQLVESGGGLVQAGGSLRISCAASGRTLFGYAMGWYRQAPGKERELVAAITYGATSTYADSVKGRFTISRDNAKNTVYLQMNSLKPEDTAVYYCNAYTPTDGFDYWGQGTQVTVSS,low polyreactivity
13,QVQLVESGGGLVQAGGSLRISCAASGRTLGYNAMGWYRQAPGKERELVAAISWSGGSTYYADSVKGRFTISRDNAKNTVYLQMNSLNPEDTAVYYCAARNNRYPLYNYWGQGTQVTVSS,low polyreactivity
14,QVQLVESGGGLVQAGGSLRISCAASGRTLTSNAMGWYRQAPGKERELVASITGSSSNTYYADSVKGRFTISRDNAKNTVYLQMNSLKPEDTAVSYCAAEVGFPWWRLDEYWGQGTQVTVSS,low polyreactivity
15,QVQLVESGGGLVQAGGSLRISCAASGRTSHAYAMGWYRQAPGKERELVAAITRVTSTYYADSVKGRFTISRDNAKNTVYLQMNSLKPEDTAVYYCAAGKGYYRSDYWGQGTQVTVSS,low polyreactivity
16,QVQLVESGGGLVQAGGSLRISCAASGSIFRGNAMGWYRQAHGKERELVAAITRGVSTYYADSVKGRFTISRDNAKNTVYLQMNSLKPEDTAVYYCAKPYWWGYYSWGQGSQVTVSS,high polyreactivity
17,QVQLVESGGGLVQAGGSLRISCAASGSIFRGYGMGWDRQAPGKERELVAAINYSGGSTYYADSVKGRYTISRDNAKNTVYLQMNSLKPEDTAVYYCNKVYYRQRGEYYYWGQGTQVTVSS,high polyreactivity
18,QVQLVESGGGLVQAGGSLRISCAASGSIFTINAMGWYRQAPGKERELVARITSVDSTNYADSVKGRFTISRDNAKNNVHLQMNSLKPEDTAVYYCNATFGYPFVDYDDYWGQGTQVTVSS,low polyreactivity
19,QVQLVESGGGLVQAGGSLRISCAASGSIFTPNAMGWYRQAPGKERELVAAISSSSDRTYYADSVKGRFTISRDNAKNTVYLQMNSLKPEDTAVYYCNAYYRYGIQFDYWGQGTQVTVSS,high polyreactivity
20,QVQLVESGGGLVQAGGSLRISCAASGSIFTRYAMGWYRQAPGKERELVAAIRTSGGSTYYADSVKARFTISRDNAKNTVYFQMNSLKPEDTAVYYCARRYYKSNFYYWGQGTLVTVSS,high polyreactivity
21,QVQLVESGGGLVQAGGSLRISCAASGSIFYVYAMGWYRQAPGKERELVATISTGGSTYYADSVKGRFTISRDNAKNTVYLQMNSLKPEDTAVYYCNAQFTPRYWGGYDSWGQGTQVTVSS,low polyreactivity
